These results are taken from patent publication US20230181756A1 (Novartis, published 2023).

Test [1] addresses T1, human CCR7 (human, UniProt P32248 25-378).
T1 construct: The assay field tells which; also called hCCR7; NIH3T3.hCCR7
T1 sequence: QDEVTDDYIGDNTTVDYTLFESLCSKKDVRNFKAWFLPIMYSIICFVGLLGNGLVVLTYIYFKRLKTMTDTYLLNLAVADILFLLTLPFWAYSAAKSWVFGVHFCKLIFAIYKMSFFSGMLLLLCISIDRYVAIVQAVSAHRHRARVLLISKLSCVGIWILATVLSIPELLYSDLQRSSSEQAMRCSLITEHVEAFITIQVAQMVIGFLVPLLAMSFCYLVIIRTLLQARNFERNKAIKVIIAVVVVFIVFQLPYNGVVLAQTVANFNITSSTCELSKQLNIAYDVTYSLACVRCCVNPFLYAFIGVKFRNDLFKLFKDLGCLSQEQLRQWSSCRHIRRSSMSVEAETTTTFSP
The experiment in a line: FACS titration, human CD4+ T cells (receptor density <2,000).

The target of test [2] is T1, human CCR7. The experiment in a line: cell-based or functional assay.
For test [3], the target named is T1, human CCR7. The experiment in a line: FACS binding on CCR7 expressing cells, against the unconjugated antibody.
For test [4], the target named is T1, human CCR7. The experiment in a line: cell-based or functional assay. This is another data set of the same source.
For test [5], the target named is T1, human CCR7. The experiment in a line: cell-based or functional assay. This is another data set of the same source.
Test [6] deals with T1, human CCR7. The experiment in a line: cell-based or functional assay. This is another data set of the same source.

Bounds are passed on as bounds.

B1: Humanized 684E12 hIgG1 DAPA CysMab (antibody, V domains shown)
VH: EVQLVESGGGLVKPGGSLRLSCAASGFTFSNFAMSWVRQAPGKGLEWVSTISTGGTYTYYPDSVKGRFTISRDNAKNSLYLQMNSLRAEDTAVYYCARRGYSGVDKWGQGTTVTVSS
VL: DVVMTQSPLSLPVTLGQPASISCKSGQSLLDSTGKTYLNWFLQRPGQSPRRLIYLVSKLDSGVPDRFSGSGSGTDFTLKISRVEAEDVGVYYCWQGTHFPQTFGGGTKLEIKR
notes: also called Humanized CysMab.DAPA antibody 684E12
By EC50 is commonly meant the midpoint of the concentration-response curve. Read a high EC50 as weaker potency. The molecule B1 gave an EC50 with human CCR7 [1] of about 7 nM.

B2: Parental 684E12 (antibody, IgG1, V domains shown)
VH: EVHLVESGGGLVKPGGSLKLSCAASGFTFSNFAMSWVRQTPEKRLEWVATISTGGTYTYYPDSVKGRFTISRDNAKKTLYLQMSSLRSEDTAMYYCTRRGYDGVDKWGQGTTLTVSS
VL: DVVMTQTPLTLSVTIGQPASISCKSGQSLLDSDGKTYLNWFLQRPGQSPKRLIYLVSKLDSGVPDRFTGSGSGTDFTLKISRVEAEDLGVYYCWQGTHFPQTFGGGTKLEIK
Take B2: in the test with human CCR7 [2], the “pgADC cytotoxic assay, Anti-mFc.MMAF, AMAX (%)” value was determined as 80%; the “pgADC cytotoxic assay, Anti-mFc.MMAF, IC50” value was 0.214 nM; the “pgADC cytotoxic assay, Fab-ZAP, AMAX (%)” value was determined as 33%; the “pgADC cytotoxic assay, Fab-ZAP, IC50” value was determined as 2.6 nM.

B3: 684E12.SMCC.DM1 (antibody, V domains shown)
VH: EVHLVESGGGLVKPGGSLKLSCAASGFTFSNFAMSWVRQTPEKRLEWVATISTGGTYTYYPDSVKGRFTISRDNAKKTLYLQMSSLRSEDTAMYYCTRRGYDGVDKWGQGTTLTVSS
VL: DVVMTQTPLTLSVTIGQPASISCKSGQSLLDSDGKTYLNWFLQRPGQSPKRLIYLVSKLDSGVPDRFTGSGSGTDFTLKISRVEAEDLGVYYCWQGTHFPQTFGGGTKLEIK
modifications: SMCC-DM1 on lysines of the antibody, DAR 2.6
notes: also called parental 684E12.SMCC.DM1
Take B3: the “difference of geometric mean fluorescence intensity from the unconjugated antibody” value (from here on “difference”) with human CCR7 [3] was at most 20%.

B4: Parental 506E15 (antibody, V domains shown)
VH: EVMLVESGGGLVKPGGSLKLSCAASGFTFSSYAMSWIRQTPEKRLEWVATISSGGSFTYYPDSVKGRFTISRDNVKNTLYLQMSSLRSEDTAMYYCARRASTVVGTDFDVWGAGTTVTVSS
VL: DIQMTQSPSSLSASLGERVSLTCRASQDIGSSLNWLQQEPDGTIKRLIYATSSLDSGVPKRFSGSRSGSDYSLTISSLESEDFVVYYCLQYASSPPTFGGGTKLEIK
Consider B4, for which, in the test with human CCR7 [4], the “ADCC reporter assay, 506E15 IC50 (nM), ALL-SIL cells (CCR7 receptor # 6,200)” value was determined as 0.008 nM; the “ADCC reporter assay, 506E15 IC50 (nM), CMLT-1 cells (CCR7 receptor # 29,000)” value is 0.011 nM; the “ADCC reporter assay, 506E15 IC50 (nM), DEL cells (CCR7 receptor # 62,000)” value was 0.074 nM; the “ADCC reporter assay, 506E15 IC50 (nM), DND-41 cells (CCR7 receptor # 1,700)” value stood at 0.002 nM. In addition, in the test with human CCR7 [4], the “ADCC reporter assay, 506E15 IC50 (nM), JVM2 cells (CCR7 receptor # 66,500)” value was found to be 0.046 nM; the “ADCC reporter assay, 506E15 IC50 (nM), Jurkat V158 cells (CCR7 receptor # 3,400)” value worked out at 0.004 nM; the “ADCC reporter assay, 506E15 IC50 (nM), MOTN-1 cells (CCR7 receptor # 64,600)” value is 0.077 nM; the “ADCC reporter assay, 506E15 IC50 (nM), PEER cells (CCR7 receptor # 8,700)” value was found to be 0.038 nM. In the test with human CCR7 [4], the “ADCC reporter assay, 506E15 IC50 (nM), SR786 cells (CCR7 receptor # 27,800)” value is 0.011 nM. In the test with human CCR7 [2], the “pgADC cytotoxic assay, Anti-mFc.MMAF, AMAX (%)” value amounted to 95%; the “pgADC cytotoxic assay, Anti-mFc.MMAF, IC50” value was 0.07 nM; the “pgADC cytotoxic assay, Fab-ZAP, AMAX (%)” value was 60%; the “pgADC cytotoxic assay, Fab-ZAP, IC50” value is 0.135 nM.

B5: 506E15.CysMab.DAPA.AURIX2 (antibody, human IgG1, kappa, V domains shown)
VH: EVQLVESGGGLVKPGGSLRLSCAASGFTFSSYAMSWIRQAPGKGLEWVATISSGGSFTYYPDSVKGRFTISRDNAKNSLYLQMNSLRAEDTAVYYCARRASTVVGTDFDVWGQGTTVTVSS
VL: DIQMTQSPSSLSASVGDRVTLTCRASQDIGSSLNWLQQKPGKAIKRLIYATSSLDSGVPSRFSGSRSGTDYTLTISSLQPEDFVVYYCLQYASSPPTFGGGTKLEIKR
modifications: AURIX2 on engineered cysteines, DAR 3.80
notes: also called 506E15.DAPA.AURIX2
In the case of B5, in the test with human CCR7 [5], the “ADC activity in cell viability assay; IC50 (nM); DEL cells” value is 0.0084 nM and the “ADC activity in cell viability assay; IC50 (nM); KE97 cells” value is 0.0131 nM. Besides, the “difference” value with human CCR7 [3] was at most 20%.

B6: 674J13.CysMab.DAPA.AURIX2 (antibody, human IgG1, kappa, V domains shown)
VH: DVQLQESGPGLVKPSQTLSLTCTVSGYSITSGYSWHWIRQHPGKGLEWMAHIHSSGSTNYNPSLKSRITISRDTSKNQFSLKLSSVTAADTAVYYCARGGVQAFAYWGQGTLVTVSS
VL: EIVLTQSPATLSASPGERVTMSCSASSSVIYMHWYQQKPGQAPRRWIYDTSKLASGVPARFSGSGSGTDYTLTISSMEPEDAAVYYCQQWSSNPLTFGQGTKLEIKR
modifications: DAR LC 0.03; AURIX2 on engineered cysteines, DAR HC 3.93
notes: also called 674J13.DAPA.AURIX2
With B6, in the test with human CCR7 [5], the “ADC activity in cell viability assay; IC50 (nM); DEL cells” value worked out at 0.117 nM and the “ADC activity in cell viability assay; IC50 (nM); KE97 cells” value turned out to be 0.0658 nM. In the test with human CCR7 [6], the “ADC activity in cell viability assay; IC50 (nM); CML-T1 cells (CCR7 receptor levels ~29,000)” value is 3.78 nM, the “ADC activity in cell viability assay; IC50 (nM); DEL cells (CCR7 receptor levels ~100,000)” value came to 0.242 nM, the “ADC activity in cell viability assay; IC50 (nM); KE97 cells (CCR7 receptor levels ~100,000)” value was 0.102 nM and the “ADC activity in cell viability assay; IC50 (nM); SR786 cells (CCR7 receptor levels ~28,000)” value was found to be 2.74 nM. For the same molecule, the “difference” value with human CCR7 [3] is at most 20%.

B7: Parental 121G12 (antibody, V domains shown)
VH: EVQLVESGGGLVKPGGSLKLSCAASGFTFSTYAMSWVRQTPEKRLEWVATISDGGSYSYYPDNVKGRFTISRDNAKNNLYLQMSHLKSEDTAMYYCARRGSRYEEYYVMDYWGQGTSVTVSS
VL: DIVLTQSPATLSVTPGDSVSLSCRASQSISNNLHWYQQKSHESPKLLIKYASQSISGIPSRFSGSGSGTDFTLSINSVETEDFGMYFCQQSNSWLTFGAGTKLGLK
Turning to B7, in the test with human CCR7 [2], the “pgADC cytotoxic assay, Anti-mFc.MMAF, AMAX (%)” value was determined as 104%; the “pgADC cytotoxic assay, Anti-mFc.MMAF, IC50” value was found to be 0.055 nM; the “pgADC cytotoxic assay, Fab-ZAP, AMAX (%)” value amounted to 43%; the “pgADC cytotoxic assay, Fab-ZAP, IC50” value was 0.064 nM.

B8: Parental 674J13 (antibody, IgG1, V domains shown)
VH: DVQLQESGPDLVKPSQSLSLTCTVTGYSITSGYSWHWIRQFPGNKLEWMAHIHSSGSTNYNPSLKSRISIIRDTSKNLFFLQLNSVTTEDTATYYCARGGVQAFAYWGQGTLVTVSA
VL: QIVLTQSPAIMSASPGEKVTMTCSASSSVIYMHWYQQKSGTSPKRWIYDTSKLASGVPARFSGSGSGTSYSLTISSMEAEDAATYYCQQWSSNPLTFGAGTTLELK
B8: in the test with human CCR7 [2], the “pgADC cytotoxic assay, Anti-mFc.MMAF, AMAX (%)” value was determined as 102%; the “pgADC cytotoxic assay, Anti-mFc.MMAF, IC50” value was 0.137 nM; the “pgADC cytotoxic assay, Fab-ZAP, AMAX (%)” value came to 31%; the “pgADC cytotoxic assay, Fab-ZAP, IC50” value was determined as 6.12 nM.
